{
  "source": "patent US11078245B2",
  "about": "“Colon and pancreas cancer peptidomimetics” (PRECISION BIOLOGICS, INC., priority 2010, dated 2021)",
  "key": {"MUC5AC long construct": {"target": "T1, MUC5AC long construct (Homo sapiens, UniProt P98088, DEL3501-3501/G3481S/I3234V)", "T1 construct": "expressed in transfected cells; host or cells: CHO cells, transient/clonal plasmid transfection", "T1 sequence (P98088 with tags, fused parts or gaps I3234V/G3481S/DEL3501-3501)": "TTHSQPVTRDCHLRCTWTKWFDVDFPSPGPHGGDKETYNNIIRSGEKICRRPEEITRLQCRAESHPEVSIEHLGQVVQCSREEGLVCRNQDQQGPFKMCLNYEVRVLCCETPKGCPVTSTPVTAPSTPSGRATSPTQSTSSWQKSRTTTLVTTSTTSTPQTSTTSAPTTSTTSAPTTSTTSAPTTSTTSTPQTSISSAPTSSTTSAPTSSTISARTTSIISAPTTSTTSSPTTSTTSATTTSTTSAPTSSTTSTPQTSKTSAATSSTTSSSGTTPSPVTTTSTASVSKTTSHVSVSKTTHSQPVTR", "experiment": "Immunofluorescence of transfected CHO cells", "type": "cell-based", "settings": "different plasmid clones of the MUC5AC long construct", "text": "(§1) An exemplary amino acid sequence of MUC5AC is presented in SEQ ID NO: 36 with an exemplary nucleic acid sequence encoding MUC5AC presented in SEQ ID NO: 37. Therefore, a recombinant expression plasmid was designed and constructed that encoded residues upstream of tandem repeat units and two tandem repeat units (“MUC5AC-long” SEQ ID NO: 38 with the corresponding nucleic acid sequence of SEQ ID NO: 39). The MUC5AC long peptide corresponds to amino acid residues 2636 to 2942 of the MUC5AC protein (SEQ ID NO: 36). A second expression plasmid was designed and constructed that encoded primarily a short domain which connects to the central repetitive region and only a portion of the tandem repeat residues (“MUC5AC-short” SEQ ID NO: 40 with the nucleic acid encoding it in SEQ ID NO: 41). The MUC5AC short peptide corresponds to amino acid residues 2636 to 2763 of the MUC5AC protein (SEQ ID NO: 36). These smaller fragments of the large MUC5AC molecule were predicted to comprise NEO-101 antibody binding regions that contain the NPC-1 epitope(s).\n(§2) The DNA sequences that contained NEO-101 antibody binding regions, based on the amino acid sequence, were back-translated to nucleic acid sequence and the DNAs were synthesized by methods well-known in the art. […]"}, "MUC5AC short construct": {"target": "T2, MUC5AC short construct (Homo sapiens, UniProt P98088, I3234V)", "T2 construct": "expressed in transfected cells; host or cells: CHO cells, transient/clonal plasmid transfection", "T2 sequence (P98088 3212-3339 I3234V)": "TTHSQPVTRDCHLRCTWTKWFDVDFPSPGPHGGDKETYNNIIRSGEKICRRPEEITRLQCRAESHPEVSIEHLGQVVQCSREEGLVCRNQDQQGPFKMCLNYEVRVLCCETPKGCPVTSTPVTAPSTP", "experiment": "Immunofluorescence of transfected CHO cells", "type": "cell-based", "settings": "different plasmid clones of the MUC5AC short construct", "text": "as §1, §2"}, "[1]": {"system": "colorectal and pancreatic cancer biopsies", "experiment": "IHC staining of patient tumor biopsies with NEO-101", "type": "binding, human", "settings": "colorectal and pancreatic biopsies together", "procedure": "Patients enrolled on the clinical diagnostic study agreed to provide their tumor biopsy or surgical specimen to be stained immunohistochemically with NEO-101. Tumor sections were prepared as slides, and two additional slides were prepared for negative control (human IgG1) and positive control (cytokeratin) staining to ensure quality controls for the IHC method. More specifically, tumor biopsy specimens from colorectal and pancreas cancer patients were deparaffinized at about 60° C. for 30 min prior to staining with NEO-101. Subsequently, all staining steps were carried out at about 25° C. Slides (4 μm) were blocked with Peroxo-Bloc® inhibitor (Zymed Laboratories) for about 2 min, rinsed with phosphate-buffered saline (PBS), and blocked with CAS (Zymed) for an additional about 10 minutes. Slides were stained with about 10 μg/mL of biotin-labeled NEO-101 for 1 hour, and washed three times with PBS containing 0.05% Tween®-20 non-ionic detergent. […]\nAll antibodies were biotinylated prior to use and tested independently at various concentrations using human tumor tissues known to react with the antibodies. Primary antibody (NEO-101) was used at about 10 μg/mL, detected with streptavidin-horseradish peroxidase conjugate, and mounted on slides. A positive staining scale ranging from +1 to +5 was applied to the staining results, measured by light microscopy. […]"}, "[2]": {"experiment": "Cytokine response in vivo, multiplex bead assay", "parameters": "species or system BALB/c mice", "settings": "3.5 or 14 mg/kg iv; day 3", "procedure": "In a preliminary study designed to evaluate potential cytokine responses in vivo, normal BALB/c mice were injected intravenously with either 3.5 mg/kg or 14 mg/kg (5 mice per group) of research-grade NEO-101. Blood was collected on Study Day 3 (^72 hours post-injection) and Study Day 10. Serum was prepared (including from the pre-bleed of each mouse) and tested for the presence of mouse IL-2, IFN-γ, IL-4, and IL-5 in a multiplex bead assay using the SearchLight Array service offered by Aushon BioSystems, Inc."}, "DU145 (Prostate)": {"system": "DU145 (Prostate)", "experiment": "ADCC 4-hour 111-Indium release assay", "type": "cell-based, human"}},
  "note": "Values joined by “and” are separate entries in the source; they are usually repeats but may differ in a detail not shown here. Equal values may be shown once.",
  "data": [
    {"molecule": "NEO-101: Chimeric NEO-101 antibody, engineered in CHO-DG44 production cell clone 4B7; targets a variant of MUC5AC (protein) light: QVVLTQSPVIMSASPGEKVTMTCSASSSISYMYWYQQKPGTSPKRWIYDTSKLASGVPARFSGSGSGTSYSLTISNMEAGDAATYYCHQRDSYPWTFGGGTNLEIK heavy: QVQLKESGPDLVAPSQSLSITCTVSGFSLSKFGVNWVRQPPGKGLEWLGVIWGDGSTSYNSGLISRLSISKENSKSQVFLKLNSLQADDTATYYCVKPGGDYWGHGTSVTVSS", "values": [
      {"measurement": "CHO cells bound by antibody", "setting": "MUC5AC long construct", "result": "76%-88%"},
      {"measurement": "CHO cells bound by antibody", "setting": "MUC5AC short construct", "result": "11%-80%"},
      {"measurement": "patient tumor samples considered positive (+1 to +5)", "setting": "[1]", "result": 79, "unit": "%"},
      {"measurement": "patient tumor samples considered positive, samples/total", "setting": "[1]", "result": "30 of 38 and 30/38"},
      {"measurement": "serum level of IFN-γ", "setting": "[2]", "result": "no appreciable change"},
      {"measurement": "serum level of IL-2", "setting": "[2]", "result": "small increase"},
      {"measurement": "serum level of IL-4", "setting": "[2]", "result": "no appreciable change"},
      {"measurement": "serum level of IL-5", "setting": "[2]", "result": "small increase"},
      {"measurement": "% Specific Killing (±SEM)", "setting": "DU145 (Prostate); Effector:Target 12.5:1", "result": "−0.3 ± 0.1", "unit": "%"},
      {"measurement": "% Specific Killing (±SEM)", "setting": "DU145 (Prostate); Effector:Target 25:1", "result": "0.3 ± 0.8", "unit": "%"},
      {"measurement": "% Specific Killing (±SEM)", "setting": "DU145 (Prostate); Effector:Target 50:1", "result": "−0.5 ± 0.3", "unit": "%"}
    ]}
  ]
}
